According to patent US20240141072A1 (published 2024):
Residue numbers refer to the chain shown, from its start.

B1: 3A06 anti-DLL3 trispecific protein (other)
chain: EVQLVESGGGLVQPGGSLTLRCAASGSKVSFLSMAWYRQAPGKKRELVAGISADGSTDYVDSVKGRFTISRDNAKNSVYLQMNSLRAEDTAVYYCYAYRWTRRYTYWGQGTLVTVSS
notes: not shown: linker 1808, anti-albumin sdAb, linker 1808, anti-CD3 fragment, His6 1819
B2: 3F06 anti-DLL3 trispecific protein (other)
chain: B1 chain with R21S, K28R, D58S, V60I, T101A, R102T
notes: as for B1
B3: 3H09 anti-DLL3 trispecific protein (other)
chain: B1 chain with R21S, G26K, K28S, V60I, R102T, Y104A
notes: as for B1
B4: 3D010 anti-DLL3 trispecific protein (other)
chain: B1 chain with R21S, K28S, V29K, D58S, V60I, R102T
notes: as for B1
B5: 3F05 anti-DLL3 trispecific protein (other)
chain: B1 chain with R21S, A53T, V60I, R102T, Y104R
notes: as for B1
B6: 3B02 anti-DLL3 trispecific protein (other)
chain: B1 chain with R21S, K28S, S30Q, V60I, D61N, T101R, R102T
notes: as for B1
B7: 3E03 anti-DLL3 trispecific protein (other)
chain: B1 chain with R21S, K28S, S30R, A53G, V60I, T101M, R102T
notes: as for B1
B8: 3B09 anti-DLL3 trispecific protein (other)
chain: B1 chain with R21S, K28H, D54N, V60I, R102T, T105A
notes: as for B1
B9: 3F09 anti-DLL3 trispecific protein (other)
chain: B1 chain with R21S, K28S, S30R, A53R, V60I, T101G, R102T
notes: as for B1
B10: 3B010 anti-DLL3 trispecific protein (other)
chain: B1 chain with R21S, K28S, A53R, V60I, T101V, R102T
notes: as for B1
B11: 3C02 anti-DLL3 trispecific protein (other)
chain: B1 chain with R21S, K28S, S30R, D58I, V60I, T101R, R102T
notes: as for B1
B12: 3E09 anti-DLL3 trispecific protein (other)
chain: B1 chain with R21S, K28S, S30R, A53R, V60I, T101S, R102T
notes: as for B1
B13: 3G011 anti-DLL3 trispecific protein (other)
chain: B1 chain with R21S, K28R, D58G, V60I, T101A, R102T
notes: as for B1
B14: 3D03 anti-DLL3 trispecific protein (other)
chain: B1 chain with R21S, K28S, S30V, T57M, V60I, T101R, R102T
notes: as for B1
B15: 3H010 anti-DLL3 trispecific protein (other)
chain: B1 chain with R21S, K28S, D58A, V60I, R102T, Y104R
notes: as for B1
B16: 3E04 anti-DLL3 trispecific protein (other)
chain: B1 chain with R21S, K28S, S30H, A53R, V60I, R102T, T105R
notes: as for B1
B17: 3G010 anti-DLL3 trispecific protein (other)
chain: B1 chain with R21S, K28S, A53V, V60I, T101R, R102T
notes: as for B1
B18: 3B05 anti-DLL3 trispecific protein (other)
chain: B1 chain with R21S, A23V, K28S, S30K, D58T, V60I, R102T, Y104R
notes: as for B1
B19: 3D011 anti-DLL3 trispecific protein (other)
chain: B1 chain with R21S, K28S, F31R, T57R, V60I, R102T, T105K
notes: as for B1
B20: 3E011 anti-DLL3 trispecific protein (other)
chain: B1 chain with R21S, A53R, V60I, R102T, Y106F
notes: as for B1
B21: 3G06 anti-DLL3 trispecific protein (other)
chain: B1 chain with R21S, K28S, S30K, D58L, V60I, R102T, Y104R
notes: as for B1
B22: 3D01 anti-DLL3 trispecific protein (other)
chain: B1 chain with R21S, K28S, A53R, V60I, T101I, R102T
notes: as for B1
B23: 3B011 anti-DLL3 trispecific protein (other)
chain: B1 chain with R21S, K28S, T57A, V60I, T101V, R102T
notes: as for B1
B24: 3G09 anti-DLL3 trispecific protein (other)
chain: B1 chain with R21S, K28S, F31V, V60I, D61G, R102T, Y104T
notes: as for B1
B25: 3G08 anti-DLL3 trispecific protein (other)
chain: B1 chain with R21S, K28R, A53K, V60I, R102T, Y104V
notes: as for B1
B26: 3D02 anti-DLL3 trispecific protein (other)
chain: B1 chain with R21S, K28S, S30R, A53R, V60I, T101I, R102T
notes: as for B1
B27: 3E02 anti-DLL3 trispecific protein (other)
chain: B1 chain with R21S, K28G, S30R, A53P, V60I
notes: as for B1
B28: 3C09 anti-DLL3 trispecific protein (other)
chain: B1 chain with R21S, K28S, D58I, V60I, T101R, R102T
notes: as for B1
B29: 3B01 anti-DLL3 trispecific protein (other)
chain: B1 chain with R21S, K28S, A53G, V60I, R102T
notes: as for B1
B30: 3F010 anti-DLL3 trispecific protein (other)
chain: B1 chain with R21S, G26Y, K28S, F31R, D58V, V60I, R102T, Y104N
notes: as for B1
B31: 3D05 anti-DLL3 trispecific protein (other)
chain: B1 chain with R21S, K28S, S30R, V60I
notes: as for B1
B32: 4A01 anti-DLL3 trispecific protein (other)
chain: B1 chain with R21S, K28S, S30R, A53Q, V60I, T101R, R102T
notes: as for B1
B33: 3G04 anti-DLL3 trispecific protein (other)
chain: B1 chain with R21S, A23V, S27T, K28S, D58I, V60I, R102T, Y104R
notes: as for B1
B34: 4A02 anti-DLL3 trispecific protein (other)
chain: B1 chain with R21S, K28S, S30R, A53N, V60I, T101K, R102T
notes: as for B1
B35: 3H07 anti-DLL3 trispecific protein (other)
chain: B1 chain with R21S, K28R, D58S, V60I, T101R, R102T
notes: as for B1
B36: 3A09 anti-DLL3 trispecific protein (other)
chain: B1 chain with R21S, K28S, T57V, V60I, R102T, T105I
notes: as for B1
B37: 3C05 anti-DLL3 trispecific protein (other)
chain: B1 chain with R21S, A23V, S27T, K28S, D58T, V60I, R102T, Y104R
notes: as for B1
B38: 3C011 anti-DLL3 trispecific protein (other)
chain: B1 chain with R21S, K28S, S30R, D54H, V60I, T101R, R102T
notes: as for B1
B39: 3B06 anti-DLL3 trispecific protein (other)
chain: B1 chain with R21S, S27K, K28S, A53K, V60I, R102T
notes: as for B1
B40: 3H03 anti-DLL3 trispecific protein (other)
chain: B1 chain with R21S, K28S, S30R, A53T, V60I, Y98L, R102T
notes: as for B1
B41: 3G01 anti-DLL3 trispecific protein (other)
chain: B1 chain with R21S, K28S, D58L, V60I, R102T, T105A
notes: as for B1
B42: 4A04 anti-DLL3 trispecific protein (other)
chain: B1 chain with R21S, K28R, D54R, V60I, T101S, R102T
notes: as for B1
B43: 3A010 anti-DLL3 trispecific protein (other)
chain: B1 chain with R21S, K28R, D58L, V60I, R102T, Y104R
notes: as for B1
B44: 3C01 anti-DLL3 trispecific protein (other)
chain: B1 chain with R21S, K28S, S30R, D54H, V60I, T101S, R102T
notes: as for B1
B45: 3A08 anti-DLL3 trispecific protein (other)
chain: B1 chain with R21S, K28S, S30G, V60I, D61R, T101R, R102T
notes: as for B1
B46: 3D08 anti-DLL3 trispecific protein (other)
chain: B1 chain with R21S, K28S, S30R, D54N, V60I, R102N
notes: as for B1
B47: 3B07 anti-DLL3 trispecific protein (other)
chain: B1 chain with R21S, K28R, D58T, V60I, R102T
notes: as for B1
B48: 3C03 anti-DLL3 trispecific protein (other)
chain: B1 chain with R21S, K28S, S30R, A53R, D58V, V60I, R102T, Y104G
notes: as for B1
B49: 3B04 anti-DLL3 trispecific protein (other)
chain: B1 chain with R21S, K28N, D54R, V60I, R99H, R102T
notes: as for B1
B50: 3G02 anti-DLL3 trispecific protein (other)
chain: B1 chain with R21S, K28S, S56R, V60I, T101R, R102T
notes: as for B1
B51: 3H01 anti-DLL3 trispecific protein (other)
chain: B1 chain with R21S, A23V, K28S, S30K, A53G, D58T, V60I, R102T, Y104R
notes: as for B1
B52: 3G07 anti-DLL3 trispecific protein (other)
chain: B1 chain with R21S, K28S, A53R, V60I, R102S
notes: as for B1
B53: 3F08 anti-DLL3 trispecific protein (other)
chain: B1 chain with R21S, K28R, D58L, V60I, T101H, R102T
notes: as for B1
B54: 3C06 anti-DLL3 trispecific protein (other)
chain: B1 chain with R21S, S27T, K28S, M34I, V60I, D61A, T101R, R102T
notes: as for B1
B55: 3F011 anti-DLL3 trispecific protein (other)
chain: B1 chain with R21S, K28S, A53T, V60I, T101R, R102T
notes: as for B1
B56: 3C08 anti-DLL3 trispecific protein (other)
chain: B1 chain with R21S, K28S, S30K, A53L, V60I, R102G
notes: as for B1
B57: 3D09 anti-DLL3 trispecific protein (other)
chain: B1 chain with R21S, K28S, F31R, D54N, D58T, V60I, R102T, T105R
notes: as for B1
B58: 3E01 anti-DLL3 trispecific protein (other)
chain: B1 chain with R21S, K28S, S30K, D58M, V60I, T101H, R102T
notes: as for B1

Target: T1, biotinylated human DLL3 protein expressed as a human IgG1 fusion protein (human, UniProt Q9NYJ7 27-492, limits assumed, biotinylated)
T1 sequence: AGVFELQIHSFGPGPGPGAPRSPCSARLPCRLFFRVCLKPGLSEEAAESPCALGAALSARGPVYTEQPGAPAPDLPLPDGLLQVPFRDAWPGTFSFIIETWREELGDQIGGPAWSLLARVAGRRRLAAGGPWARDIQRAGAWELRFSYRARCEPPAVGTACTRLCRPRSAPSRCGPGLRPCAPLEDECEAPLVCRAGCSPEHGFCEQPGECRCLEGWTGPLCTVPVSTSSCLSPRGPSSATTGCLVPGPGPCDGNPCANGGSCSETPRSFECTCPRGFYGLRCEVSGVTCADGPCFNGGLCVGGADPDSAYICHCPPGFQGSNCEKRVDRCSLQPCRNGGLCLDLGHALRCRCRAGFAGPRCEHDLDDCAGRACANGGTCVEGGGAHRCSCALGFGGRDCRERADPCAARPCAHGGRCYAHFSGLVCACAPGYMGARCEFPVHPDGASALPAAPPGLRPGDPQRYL
Assay: Octet BLI, single 50 nM
Procedure, shortened: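 Analyte: trispecific anti-DLL3 proteins in conditioned medium, concentration known; ligand: captured DLL3 fusion; output: binding affinity.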

Compared with B1, B2 is 1.6-fold lower in Kd: 16 nM for the first, 9.9 nM for the second.

B3 and B4 are the same in Kd: 14 nM for the first, 14 nM for the second.

Going from B5 to B6, the Kd rises from 7.5 nM to 12 nM (1.6-fold). The first binds more tightly here.

B7 and B8 are the same in Kd: 20 nM for the first, 20 nM for the second.

B9 and B10 are the same in Kd: 12 nM for the first, 12 nM for the second.

B11 and B12 are within 1.5-fold of each other in Kd: 9.1 nM for the first, 10 nM for the second.

Compared with B13, B14 is 1.5-fold lower in Kd: 17 nM for the first, 11 nM for the second. The second binds more tightly here.

B15 and B16 are within 1.5-fold of each other in Kd: 8.6 nM for the first, 11 nM for the second.

B17 and B18 are within 1.5-fold of each other in Kd: 6.9 nM for the first, 7.2 nM for the second.

First: B19
Second: B20
The Kd of the first is 2.1-fold lower: 5.3 nM for the first, 11 nM for the second.

B21 and B22 are within 1.5-fold of each other in Kd: 12 nM for the first, 10 nM for the second.

B23 and B24 are within 1.5-fold of each other in Kd: 9 nM for the first, 7.3 nM for the second.

B25 and B26 are the same in Kd: 12 nM for the first, 12 nM for the second.

Compared with B27, B28 is 1.5-fold lower in Kd: 12 nM for the first, 7.8 nM for the second. The second binds more tightly here.

Compared with B29, B30 is 2.3-fold lower in Kd: 10 nM for the first, 4.4 nM for the second.

Going from B31 to B32, the Kd falls from 16 nM to 10 nM (1.6-fold). The second binds more tightly here.

B33 and B34 are within 1.5-fold of each other in Kd: 8.8 nM for the first, 9 nM for the second.

Going from B35 to B36, the Kd falls from 13 nM to 6.3 nM (2.1-fold).

Compared with B37, B38 is 1.7-fold higher in Kd: 8.2 nM for the first, 14 nM for the second.

Going from B39 to B40, the Kd falls from 15 nM to 9.9 nM (1.5-fold).

First: B41
Second: B42
The Kd of the first is 4.3-fold lower: 8.2 nM for the first, 35 nM for the second.

B43 and B44 are within 1.5-fold of each other in Kd: 12 nM for the first, 14 nM for the second.

B45 and B46 are within 1.5-fold of each other in Kd: 12 nM for the first, 17 nM for the second.

B47 and B48 are within 1.5-fold of each other in Kd: 7.3 nM for the first, 4.9 nM for the second.

B49 and B50 are within 1.5-fold of each other in Kd: 24 nM for the first, 20 nM for the second.

B51 and B52 are within 1.5-fold of each other in Kd: 9 nM for the first, 13 nM for the second.

B53 and B54 are within 1.5-fold of each other in Kd: 14 nM for the first, 10 nM for the second.

B55 and B56 are within 1.5-fold of each other in Kd: 7.1 nM for the first, 5.9 nM for the second.

Compared with B57, B58 is 2-fold lower in Kd: 32 nM for the first, 16 nM for the second.
